Laboratory results reported in the Human Domainome abundance scans (Beltran et al. 2025).
± gives the uncertainty stated by the source.

B1: E3 ubiquitin-protein ligase TRIM36, residues 208 to 252; numbered along this chain, Q9NQ86 (parent)
chain: KILMCPEHETERINMYCELCRRPVCHLCKLGGNHANHRVTTMSSA

Variants of: B1
Test: abundance fitness (aPCA) (normalised: wild type 0, dead -1); higher = more abundant; growth selection in yeast, the domain comes from the species named
Conditions: Homo sapiens

Question: With KILMCPEHETERINMYCELCRRPVCHLRKLGGNHANHRVTTMSSA [C28R] as the variant, how does the abundance fitness read?
Answer: The abundance fitness was -0.637 ± 0.052.

Question: For KILMCPEHETERINMYCELCRRPVCHLKKLGGNHANHRVTTMSSA [C28K], which abundance fitness is on record?
Answer: Its abundance fitness is -0.592 ± 0.13.

Question: Which abundance fitness does the source give for KILMCPEHETERINMYCELCRRPVCHLTKLGGNHANHRVTTMSSA [C28T] here?
Answer: Its abundance fitness is -0.777 ± 0.13.

Question: With KILMCPEHETERINMYCELCRRPVCHLGKLGGNHANHRVTTMSSA [C28G] as the variant, how does the abundance fitness read?
Answer: Its abundance fitness is -0.608 ± 0.05.

Question: For KILMCPEHETERINMYCELCRRPVCHLLKLGGNHANHRVTTMSSA [C28L], which abundance fitness is on record?
Answer: The abundance fitness was -0.826 ± 0.06.

Question: With KILMCPEHETERINMYCELCRRPVCHLYKLGGNHANHRVTTMSSA [C28Y] as the variant, how does the abundance fitness read?
Answer: Its abundance fitness is -0.904 ± 0.27.

Question: Which abundance fitness does the source give for KILMCPEHETERINMYCELCRRPVCHLDKLGGNHANHRVTTMSSA [C28D] here?
Answer: Its abundance fitness is 0.302 ± 0.27.

Question: Which abundance fitness does the source give for KILMCPEHETERINMYCELCRRPVCHLFKLGGNHANHRVTTMSSA [C28F] here?
Answer: Its abundance fitness is -1.14 ± 0.23.

Question: Which abundance fitness does the source give for KILMCPEHETERINMYCELCRRPVCHLMKLGGNHANHRVTTMSSA [C28M] here?
Answer: Its abundance fitness is -0.723 ± 0.13.

Question: For KILMCPEHETERINMYCELCRRPVCHLPKLGGNHANHRVTTMSSA [C28P], which abundance fitness is on record?
Answer: The abundance fitness was -0.579 ± 0.088.

Question: With KILMCPEHETERINMYCELCRRPVCHLAKLGGNHANHRVTTMSSA [C28A] as the variant, how does the abundance fitness read?
Answer: Its abundance fitness is -0.672 ± 0.079.

Question: With KILMCPEHETERINMYCELCRRPVCHLWKLGGNHANHRVTTMSSA [C28W] as the variant, how does the abundance fitness read?
Answer: The abundance fitness was -0.91 ± 0.072.

Question: With KILMCPEHETERINMYCELCRRPVCHLEKLGGNHANHRVTTMSSA [C28E] as the variant, how does the abundance fitness read?
Answer: The abundance fitness was -0.275 ± 0.057.

Question: Which abundance fitness does the source give for KILMCPEHETERINMYCELCRRPVCHLNKLGGNHANHRVTTMSSA [C28N] here?
Answer: Its abundance fitness is -0.546 ± 0.41.

Question: For KILMCPEHETERINMYCELCRRPVCHLIKLGGNHANHRVTTMSSA [C28I], which abundance fitness is on record?
Answer: The abundance fitness was -0.613 ± 0.09.

Question: For KILMCPEHETERINMYCELCRRPVCHLHKLGGNHANHRVTTMSSA [C28H], which abundance fitness is on record?
Answer: Its abundance fitness is -0.763 ± 0.16.

Question: With KILMCPEHETERINMYCELCRRPVCHLQKLGGNHANHRVTTMSSA [C28Q] as the variant, how does the abundance fitness read?
Answer: The abundance fitness was -0.399 ± 0.068.

Question: With KILMCPEHETERINMYCELCRRPVCHLVKLGGNHANHRVTTMSSA [C28V] as the variant, how does the abundance fitness read?
Answer: The abundance fitness was -0.525 ± 0.062.

Question: Which abundance fitness does the source give for KILMCPEHETERINMYCELCRRPVCHLSKLGGNHANHRVTTMSSA [C28S] here?
Answer: Its abundance fitness is -0.445 ± 0.059.

Question: For KILMCPEHETERINMYCELCRRPVCHLCKLGFNHANHRVTTMSSA [G32F], which abundance fitness is on record?
Answer: Its abundance fitness is -0.243 ± 0.12.

Question: With KILMCPEHETERINMYCELCRRPVCHLCKLGENHANHRVTTMSSA [G32E] as the variant, how does the abundance fitness read?
Answer: The abundance fitness was 0.089 ± 0.052.

Question: Which abundance fitness does the source give for KILMCPEHETERINMYCELCRRPVCHLCKLGRNHANHRVTTMSSA [G32R] here?
Answer: Its abundance fitness is -0.138 ± 0.049.

Question: With KILMCPEHETERINMYCELCRRPVCHLCKLGWNHANHRVTTMSSA [G32W] as the variant, how does the abundance fitness read?
Answer: Its abundance fitness is -0.297 ± 0.058.

Question: For KILMCPEHETERINMYCELCRRPVCHLCKLGKNHANHRVTTMSSA [G32K], which abundance fitness is on record?
Answer: The abundance fitness was -0.129 ± 0.084.

Question: Which abundance fitness does the source give for KILMCPEHETERINMYCELCRRPVCHLCKLGVNHANHRVTTMSSA [G32V] here?
Answer: Its abundance fitness is -0.163 ± 0.064.

Question: For KILMCPEHETERINMYCELCRRPVCHLCKLGANHANHRVTTMSSA [G32A], which abundance fitness is on record?
Answer: The abundance fitness was 0.028 ± 0.053.

Question: For KILMCPEHETERINMYCELCRRPVCHLCKLGPNHANHRVTTMSSA [G32P], which abundance fitness is on record?
Answer: The abundance fitness was -0.015 ± 0.054.

Question: With KILMCPEHETERINMYCELCRRPVCHLCKLGDNHANHRVTTMSSA [G32D] as the variant, how does the abundance fitness read?
Answer: Its abundance fitness is -0.003 ± 0.067.

Question: For KILMCPEHETERINMYCELCRRPVCHLCKLGTNHANHRVTTMSSA [G32T], which abundance fitness is on record?
Answer: Its abundance fitness is -0.07 ± 0.056.

Question: Which abundance fitness does the source give for KILMCPEHETERINMYCELCRRPVCHLCKLGSNHANHRVTTMSSA [G32S] here?
Answer: Its abundance fitness is -0.045 ± 0.05.

Question: Which abundance fitness does the source give for KILMCPEHETERINMYCELCRRPVCHLCKLGINHANHRVTTMSSA [G32I] here?
Answer: The abundance fitness was -0.276 ± 0.1.

Question: Which abundance fitness does the source give for KILMCPEHETERINMYCELCRRPVCHLCKLGCNHANHRVTTMSSA [G32C] here?
Answer: Its abundance fitness is -0.132 ± 0.06.

Question: Which abundance fitness does the source give for KILMCPEHETERINMYCELCRRPVCHLCKLGLNHANHRVTTMSSA [G32L] here?
Answer: The abundance fitness was -0.144 ± 0.052.

Question: With KILMCPEHETERINMYCELCRRPVCHLCKLGNNHANHRVTTMSSA [G32N] as the variant, how does the abundance fitness read?
Answer: The abundance fitness was -0.228 ± 0.08.

Question: With KILMCPEHETERINMYCELCRRPVCHLCKLGHNHANHRVTTMSSA [G32H] as the variant, how does the abundance fitness read?
Answer: Its abundance fitness is -0.267 ± 0.11.

Question: Which abundance fitness does the source give for KILMCPEHETERINMYCELCRRPVCHLCKLGQNHANHRVTTMSSA [G32Q] here?
Answer: The abundance fitness was -0.036 ± 0.061.

Question: With KILMCPEHETERINMYCELCRRPVCHLCNLGGNHANHRVTTMSSA [K29N] as the variant, how does the abundance fitness read?
Answer: The abundance fitness was 0.072 ± 0.084.

Question: Which abundance fitness does the source give for KILMCPEHETERINMYCELCRRPVCHLCTLGGNHANHRVTTMSSA [K29T] here?
Answer: Its abundance fitness is -0.009 ± 0.063.

Question: Which abundance fitness does the source give for KILMCPEHETERINMYCELCRRPVCHLCYLGGNHANHRVTTMSSA [K29Y] here?
Answer: The abundance fitness was -0.012 ± 0.063.

Question: With KILMCPEHETERINMYCELCRRPVCHLCWLGGNHANHRVTTMSSA [K29W] as the variant, how does the abundance fitness read?
Answer: Its abundance fitness is -0.12 ± 0.07.

Question: For KILMCPEHETERINMYCELCRRPVCHLCVLGGNHANHRVTTMSSA [K29V], which abundance fitness is on record?
Answer: Its abundance fitness is 0.004 ± 0.054.

Question: Which abundance fitness does the source give for KILMCPEHETERINMYCELCRRPVCHLCHLGGNHANHRVTTMSSA [K29H] here?
Answer: Its abundance fitness is -0.066 ± 0.075.

Question: For KILMCPEHETERINMYCELCRRPVCHLCRLGGNHANHRVTTMSSA [K29R], which abundance fitness is on record?
Answer: Its abundance fitness is -0.025 ± 0.051.

Question: With KILMCPEHETERINMYCELCRRPVCHLCMLGGNHANHRVTTMSSA [K29M] as the variant, how does the abundance fitness read?
Answer: The abundance fitness was -0.057 ± 0.057.

Question: For KILMCPEHETERINMYCELCRRPVCHLCDLGGNHANHRVTTMSSA [K29D], which abundance fitness is on record?
Answer: Its abundance fitness is 0.126 ± 0.12.

Question: For KILMCPEHETERINMYCELCRRPVCHLCILGGNHANHRVTTMSSA [K29I], which abundance fitness is on record?
Answer: Its abundance fitness is -0.13 ± 0.064.

Question: With KILMCPEHETERINMYCELCRRPVCHLCALGGNHANHRVTTMSSA [K29A] as the variant, how does the abundance fitness read?
Answer: Its abundance fitness is 0.012 ± 0.047.

Question: Which abundance fitness does the source give for KILMCPEHETERINMYCELCRRPVCHLCLLGGNHANHRVTTMSSA [K29L] here?
Answer: The abundance fitness was 0.039 ± 0.055.

Question: Which abundance fitness does the source give for KILMCPEHETERINMYCELCRRPVCHLCSLGGNHANHRVTTMSSA [K29S] here?
Answer: Its abundance fitness is 0.003 ± 0.055.

Question: With KILMCPEHETERINMYCELCRRPVCHLCCLGGNHANHRVTTMSSA [K29C] as the variant, how does the abundance fitness read?
Answer: The abundance fitness was -0.07 ± 0.074.

Question: With KILMCPEHETERINMYCELCRRPVCHLCELGGNHANHRVTTMSSA [K29E] as the variant, how does the abundance fitness read?
Answer: Its abundance fitness is 0.048 ± 0.054.

Question: Which abundance fitness does the source give for KILMCPEHETERINMYCELCRRPVCHLCQLGGNHANHRVTTMSSA [K29Q] here?
Answer: The abundance fitness was 0.019 ± 0.074.

Question: For KILMCPEHETERINMYCELCRRPVCHLCGLGGNHANHRVTTMSSA [K29G], which abundance fitness is on record?
Answer: The abundance fitness was -0.009 ± 0.048.

Question: Which abundance fitness does the source give for KILMCPEHETERINMYCELCRRPVCHLCPLGGNHANHRVTTMSSA [K29P] here?
Answer: Its abundance fitness is -0.043 ± 0.065.

Question: With KILMCPEHETERINMYCELCRRPVCHLCFLGGNHANHRVTTMSSA [K29F] as the variant, how does the abundance fitness read?
Answer: The abundance fitness was 0.001 ± 0.096.

Question: Which abundance fitness does the source give for KILMCPEHETERINMYCELCRRPVCHLCKRGGNHANHRVTTMSSA [L30R] here?
Answer: Its abundance fitness is 0.045 ± 0.049.

Question: For KILMCPEHETERINMYCELCRRPVCHLCKMGGNHANHRVTTMSSA [L30M], which abundance fitness is on record?
Answer: The abundance fitness was -0.041 ± 0.082.
